# According to patent US20130157929A1, “GLUCAGON ANALOGUES” (ZEALAND PHARMA A/S, published 2013):
# Starred links: 1 amine or outer side, 2 acyl side, 3 side chain; linkers in the order of their positions; H or OH if unused. Non-standard residues stand in square brackets, D forms with d. Groups on a side chain read outwards from the residue. *: point of attachment. γGlu = O=C(O)[C@H](CCC(=O)[*:2])N[*:1]; Palmitoyl = CCCCCCCCCCCCCCCC(=O)*; Aib = CC(C)(N)C(=O)O
# B1: Compound 8 (peptide)
# peptide: H-H[Aib]QATFTSDYSKYLDSK([γGlu-Palmitoyl])AAHDFVEWLLSA-NH2
# SMILES: CCCCCCCCCCCCCCCC(=O)N[C@@H](CCC(=O)NCCCC[C@H](NC(=O)[C@H](CO)NC(=O)[C@H](CC(=O)O)NC(=O)[C@H](CC(C)C)NC(=O)[C@H](Cc1ccc(O)cc1)NC(=O)[C@H](CCCCN)NC(=O)[C@H](CO)NC(=O)[C@H](Cc1ccc(O)cc1)NC(=O)[C@H](CC(=O)O)NC(=O)[C@H](CO)NC(=O)[C@@H](NC(=O)[C@H](Cc1ccccc1)NC(=O)[C@@H](NC(=O)[C@H](C)NC(=O)[C@H](CCC(N)=O)NC(=O)C(C)(C)NC(=O)[C@@H](N)Cc1c[nH]cn1)[C@@H](C)O)[C@@H](C)O)C(=O)N[C@@H](C)C(=O)N[C@@H](C)C(=O)N[C@@H](Cc1c[nH]cn1)C(=O)N[C@@H](CC(=O)O)C(=O)N[C@@H](Cc1ccccc1)C(=O)N[C@H](C(=O)N[C@@H](CCC(=O)O)C(=O)N[C@@H](Cc1c[nH]c2ccccc12)C(=O)N[C@@H](CC(C)C)C(=O)N[C@@H](CC(C)C)C(=O)N[C@@H](CO)C(=O)N[C@@H](C)C(N)=O)C(C)C)C(=O)O
# B2: Compound 11 (peptide)
# peptide: H-H[Aib]Q[Aib]TFTSDYSKYLDSK([γGlu-Palmitoyl])AAHDFVEWLLSA-NH2
# SMILES: CCCCCCCCCCCCCCCC(=O)N[C@@H](CCC(=O)NCCCC[C@H](NC(=O)[C@H](CO)NC(=O)[C@H](CC(=O)O)NC(=O)[C@H](CC(C)C)NC(=O)[C@H](Cc1ccc(O)cc1)NC(=O)[C@H](CCCCN)NC(=O)[C@H](CO)NC(=O)[C@H](Cc1ccc(O)cc1)NC(=O)[C@H](CC(=O)O)NC(=O)[C@H](CO)NC(=O)[C@@H](NC(=O)[C@H](Cc1ccccc1)NC(=O)[C@@H](NC(=O)C(C)(C)NC(=O)[C@H](CCC(N)=O)NC(=O)C(C)(C)NC(=O)[C@@H](N)Cc1c[nH]cn1)[C@@H](C)O)[C@@H](C)O)C(=O)N[C@@H](C)C(=O)N[C@@H](C)C(=O)N[C@@H](Cc1c[nH]cn1)C(=O)N[C@@H](CC(=O)O)C(=O)N[C@@H](Cc1ccccc1)C(=O)N[C@H](C(=O)N[C@@H](CCC(=O)O)C(=O)N[C@@H](Cc1c[nH]c2ccccc12)C(=O)N[C@@H](CC(C)C)C(=O)N[C@@H](CC(C)C)C(=O)N[C@@H](CO)C(=O)N[C@@H](C)C(N)=O)C(C)C)C(=O)O
# B3: Compound 9 (peptide)
# peptide: H-HSQ[Aib]TFTSDYSKYLDSK([γGlu-Palmitoyl])AAHDFVEWLLSA-NH2
# SMILES: CCCCCCCCCCCCCCCC(=O)N[C@@H](CCC(=O)NCCCC[C@H](NC(=O)[C@H](CO)NC(=O)[C@H](CC(=O)O)NC(=O)[C@H](CC(C)C)NC(=O)[C@H](Cc1ccc(O)cc1)NC(=O)[C@H](CCCCN)NC(=O)[C@H](CO)NC(=O)[C@H](Cc1ccc(O)cc1)NC(=O)[C@H](CC(=O)O)NC(=O)[C@H](CO)NC(=O)[C@@H](NC(=O)[C@H](Cc1ccccc1)NC(=O)[C@@H](NC(=O)C(C)(C)NC(=O)[C@H](CCC(N)=O)NC(=O)[C@H](CO)NC(=O)[C@@H](N)Cc1c[nH]cn1)[C@@H](C)O)[C@@H](C)O)C(=O)N[C@@H](C)C(=O)N[C@@H](C)C(=O)N[C@@H](Cc1c[nH]cn1)C(=O)N[C@@H](CC(=O)O)C(=O)N[C@@H](Cc1ccccc1)C(=O)N[C@H](C(=O)N[C@@H](CCC(=O)O)C(=O)N[C@@H](Cc1c[nH]c2ccccc12)C(=O)N[C@@H](CC(C)C)C(=O)N[C@@H](CC(C)C)C(=O)N[C@@H](CO)C(=O)N[C@@H](C)C(N)=O)C(C)C)C(=O)O
# B4: Compound 5 (peptide)
# peptide: H-H[Aib]HGTFTSDYSKYLDSK([γGlu-Palmitoyl])AAHEFVEWLLEA-NH2
# SMILES: CCCCCCCCCCCCCCCC(=O)N[C@@H](CCC(=O)NCCCC[C@H](NC(=O)[C@H](CO)NC(=O)[C@H](CC(=O)O)NC(=O)[C@H](CC(C)C)NC(=O)[C@H](Cc1ccc(O)cc1)NC(=O)[C@H](CCCCN)NC(=O)[C@H](CO)NC(=O)[C@H](Cc1ccc(O)cc1)NC(=O)[C@H](CC(=O)O)NC(=O)[C@H](CO)NC(=O)[C@@H](NC(=O)[C@H](Cc1ccccc1)NC(=O)[C@@H](NC(=O)CNC(=O)[C@H](Cc1c[nH]cn1)NC(=O)C(C)(C)NC(=O)[C@@H](N)Cc1c[nH]cn1)[C@@H](C)O)[C@@H](C)O)C(=O)N[C@@H](C)C(=O)N[C@@H](C)C(=O)N[C@@H](Cc1c[nH]cn1)C(=O)N[C@@H](CCC(=O)O)C(=O)N[C@@H](Cc1ccccc1)C(=O)N[C@H](C(=O)N[C@@H](CCC(=O)O)C(=O)N[C@@H](Cc1c[nH]c2ccccc12)C(=O)N[C@@H](CC(C)C)C(=O)N[C@@H](CC(C)C)C(=O)N[C@@H](CCC(=O)O)C(=O)N[C@@H](C)C(N)=O)C(C)C)C(=O)O
# B5: Compound 4 (peptide)
# peptide: H-H[Aib]PGTFTSDYSKYLDSK([γGlu-Palmitoyl])AAHDFVEWLLSA-NH2
# SMILES: CCCCCCCCCCCCCCCC(=O)N[C@@H](CCC(=O)NCCCC[C@H](NC(=O)[C@H](CO)NC(=O)[C@H](CC(=O)O)NC(=O)[C@H](CC(C)C)NC(=O)[C@H](Cc1ccc(O)cc1)NC(=O)[C@H](CCCCN)NC(=O)[C@H](CO)NC(=O)[C@H](Cc1ccc(O)cc1)NC(=O)[C@H](CC(=O)O)NC(=O)[C@H](CO)NC(=O)[C@@H](NC(=O)[C@H](Cc1ccccc1)NC(=O)[C@@H](NC(=O)CNC(=O)[C@@H]1CCCN1C(=O)C(C)(C)NC(=O)[C@@H](N)Cc1c[nH]cn1)[C@@H](C)O)[C@@H](C)O)C(=O)N[C@@H](C)C(=O)N[C@@H](C)C(=O)N[C@@H](Cc1c[nH]cn1)C(=O)N[C@@H](CC(=O)O)C(=O)N[C@@H](Cc1ccccc1)C(=O)N[C@H](C(=O)N[C@@H](CCC(=O)O)C(=O)N[C@@H](Cc1c[nH]c2ccccc12)C(=O)N[C@@H](CC(C)C)C(=O)N[C@@H](CC(C)C)C(=O)N[C@@H](CO)C(=O)N[C@@H](C)C(N)=O)C(C)C)C(=O)O
# B6: Compound 7 (peptide)
# peptide: H-H[Aib]EGTFTSDYSKYLDSK([γGlu-Palmitoyl])AAHDFVEWLLSA-NH2
# SMILES: CCCCCCCCCCCCCCCC(=O)N[C@@H](CCC(=O)NCCCC[C@H](NC(=O)[C@H](CO)NC(=O)[C@H](CC(=O)O)NC(=O)[C@H](CC(C)C)NC(=O)[C@H](Cc1ccc(O)cc1)NC(=O)[C@H](CCCCN)NC(=O)[C@H](CO)NC(=O)[C@H](Cc1ccc(O)cc1)NC(=O)[C@H](CC(=O)O)NC(=O)[C@H](CO)NC(=O)[C@@H](NC(=O)[C@H](Cc1ccccc1)NC(=O)[C@@H](NC(=O)CNC(=O)[C@H](CCC(=O)O)NC(=O)C(C)(C)NC(=O)[C@@H](N)Cc1c[nH]cn1)[C@@H](C)O)[C@@H](C)O)C(=O)N[C@@H](C)C(=O)N[C@@H](C)C(=O)N[C@@H](Cc1c[nH]cn1)C(=O)N[C@@H](CC(=O)O)C(=O)N[C@@H](Cc1ccccc1)C(=O)N[C@H](C(=O)N[C@@H](CCC(=O)O)C(=O)N[C@@H](Cc1c[nH]c2ccccc12)C(=O)N[C@@H](CC(C)C)C(=O)N[C@@H](CC(C)C)C(=O)N[C@@H](CO)C(=O)N[C@@H](C)C(N)=O)C(C)C)C(=O)O
# B7: human GLP-1 (ligand)
# peptide: RSLQDTEEKSRSFSASQADPLSDPDQMNEDKRHSQGTFTSDYSKYLDSRRAQDFVQWLMNTKRNRNNIAKRHDEFERHAEGTFTSDVSSYLEGQAAKEFIAWLVKGRGRRDFPEEVAIVEELGRRHADGSFSDEMNTILDNLAARDFINWLIQTKITDRK
# B8: Compound 12 (peptide)
# peptide: H-H[Aib]QFTFTSDYSKYLDSK([γGlu-Palmitoyl])AAHDFVEWLLSA-NH2
# SMILES: CCCCCCCCCCCCCCCC(=O)N[C@@H](CCC(=O)NCCCC[C@H](NC(=O)[C@H](CO)NC(=O)[C@H](CC(=O)O)NC(=O)[C@H](CC(C)C)NC(=O)[C@H](Cc1ccc(O)cc1)NC(=O)[C@H](CCCCN)NC(=O)[C@H](CO)NC(=O)[C@H](Cc1ccc(O)cc1)NC(=O)[C@H](CC(=O)O)NC(=O)[C@H](CO)NC(=O)[C@@H](NC(=O)[C@H](Cc1ccccc1)NC(=O)[C@@H](NC(=O)[C@H](Cc1ccccc1)NC(=O)[C@H](CCC(N)=O)NC(=O)C(C)(C)NC(=O)[C@@H](N)Cc1c[nH]cn1)[C@@H](C)O)[C@@H](C)O)C(=O)N[C@@H](C)C(=O)N[C@@H](C)C(=O)N[C@@H](Cc1c[nH]cn1)C(=O)N[C@@H](CC(=O)O)C(=O)N[C@@H](Cc1ccccc1)C(=O)N[C@H](C(=O)N[C@@H](CCC(=O)O)C(=O)N[C@@H](Cc1c[nH]c2ccccc12)C(=O)N[C@@H](CC(C)C)C(=O)N[C@@H](CC(C)C)C(=O)N[C@@H](CO)C(=O)N[C@@H](C)C(N)=O)C(C)C)C(=O)O
# B9: Compound 10 (peptide)
# peptide: H-H[Aib]QETFTSDYSKYLDSK([γGlu-Palmitoyl])AAHDFVEWLLSA-NH2
# SMILES: CCCCCCCCCCCCCCCC(=O)N[C@@H](CCC(=O)NCCCC[C@H](NC(=O)[C@H](CO)NC(=O)[C@H](CC(=O)O)NC(=O)[C@H](CC(C)C)NC(=O)[C@H](Cc1ccc(O)cc1)NC(=O)[C@H](CCCCN)NC(=O)[C@H](CO)NC(=O)[C@H](Cc1ccc(O)cc1)NC(=O)[C@H](CC(=O)O)NC(=O)[C@H](CO)NC(=O)[C@@H](NC(=O)[C@H](Cc1ccccc1)NC(=O)[C@@H](NC(=O)[C@H](CCC(=O)O)NC(=O)[C@H](CCC(N)=O)NC(=O)C(C)(C)NC(=O)[C@@H](N)Cc1c[nH]cn1)[C@@H](C)O)[C@@H](C)O)C(=O)N[C@@H](C)C(=O)N[C@@H](C)C(=O)N[C@@H](Cc1c[nH]cn1)C(=O)N[C@@H](CC(=O)O)C(=O)N[C@@H](Cc1ccccc1)C(=O)N[C@H](C(=O)N[C@@H](CCC(=O)O)C(=O)N[C@@H](Cc1c[nH]c2ccccc12)C(=O)N[C@@H](CC(C)C)C(=O)N[C@@H](CC(C)C)C(=O)N[C@@H](CO)C(=O)N[C@@H](C)C(N)=O)C(C)C)C(=O)O
# Experiments:
# [1] = target: human glucagon receptor (glucagon-R) (human, UniProt P47871); assay: cell-based or functional assay
# [2] = target: human glucagon-like peptide 1 receptor (GLP-1R) (human, UniProt P43220); assay: cell-based or functional assay
Binder,"EC50 (nM) GluR, cAMP formation [1] [nM]","EC50 (nM) GluR, cAMP formation, earlier determination [1] [nM]","EC50 (nM) GLP-1R, cAMP formation [2] [nM]"
B1,3,23,8.2
B2,5.1,,22
B3,30,,16
B4,0.15,,0.16
B5,0.48,,0.1
B6,26,,0.01
B7,100000,,
B8,25,,12
B9,15,,20
